{
  "source": "paper PMC10723421",
  "binders": {"B1": {"name": "GA del H3/H4p probe, biotin (198 bp) (dsDNA)", "DNA 1": "CACAGCACGAAAGTCACTAAAGAACTAATTTCAACGTTTCTGTGTGCCCCTATTTATAGGTAAAACGACAAAAACCCTACGAACGATATGTTCGTTCGCTTTTCGCTCGTCAAATGAAATGGCCTCTGTTTTTTCACCGTCCACGATTGCTATATAAGTAGGTAGCAAATGCTCTGATCGTTTATTGTGTTTTCAAAC", "DNA 2": "GTTTGAAAACACAATAAACGATCAGAGCATTTGCTACCTACTTATATAGCAATCGTGGACGGTGAAAAAACAGAGGCCATTTCATTTGACGAGCGAAAAGCGAACGAACATATCGTTCGTAGGGTTTTTGTCGTTTTACCTATAAATAGGGGCACACAGAAACGTTGAAATTAGTTCTTTAGTGACTTTCGTGCTGTG"}},
  "molecular_target": "T1, CLAMP (recombinant full-length) (UniProt Q9V9N4 1-561)",
  "T1 sequence": "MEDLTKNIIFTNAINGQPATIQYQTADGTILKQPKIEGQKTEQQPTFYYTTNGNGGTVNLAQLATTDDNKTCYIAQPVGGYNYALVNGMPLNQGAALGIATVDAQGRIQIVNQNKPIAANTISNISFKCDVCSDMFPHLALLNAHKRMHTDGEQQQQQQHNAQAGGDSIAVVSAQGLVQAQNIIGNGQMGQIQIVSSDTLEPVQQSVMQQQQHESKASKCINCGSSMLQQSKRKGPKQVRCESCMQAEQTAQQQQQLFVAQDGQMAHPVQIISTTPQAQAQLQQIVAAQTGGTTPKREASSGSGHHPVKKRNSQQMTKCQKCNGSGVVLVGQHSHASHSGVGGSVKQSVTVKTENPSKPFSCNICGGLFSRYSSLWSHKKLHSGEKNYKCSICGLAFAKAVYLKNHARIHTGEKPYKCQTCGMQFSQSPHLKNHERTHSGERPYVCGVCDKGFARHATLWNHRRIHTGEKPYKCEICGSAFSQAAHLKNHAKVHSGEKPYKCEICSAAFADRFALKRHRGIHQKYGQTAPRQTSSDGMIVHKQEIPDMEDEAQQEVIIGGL",
  "assay": "EMSA",
  "data": [
    {"binder": "B1", "values": [
      {"measurement": "binding result", "value": "no binding"}
    ]}
  ]
}
